Measurements taken from publication PMC2328253.

Target: T1, His-RosE (Salmonella enterica serotype Typhimurium) (UniProt Q8ZK37)
T1 sequence: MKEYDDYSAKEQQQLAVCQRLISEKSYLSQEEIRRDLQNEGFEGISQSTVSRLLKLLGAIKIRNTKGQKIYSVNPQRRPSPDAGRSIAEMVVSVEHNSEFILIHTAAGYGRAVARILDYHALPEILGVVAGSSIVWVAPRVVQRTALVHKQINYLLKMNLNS
Experiment: EMSA

TAAAAAGTATTTCTTTGATGATTATTCTTAAATTACGATCATAATCATCGATCGTATCGATCTATTTTTATTGTTTTAATTTGAATAAGAATTTTCTTACAACTGATTAGGCATTAGCTGAAATCAATATTTTTCGATGGAAAGTTCAGG (double strand) [stdA upstream region 1]
binding: no binding
